Experimental data from the Human Domainome abundance scans (Beltran et al. 2025).

B1: Pituitary-specific positive transcription factor 1, residues 130 to 198; numbered along this chain, P28069 (parent)
chain: RELEKFANEFKVRRIKLGYTQTNVGEALAAVHGSEFSQTTICRFENLQLSFKNACKLKAILSKWLEEAE

Variants of: B1
Experiment: abundance fitness (aPCA) (normalised: wild type 0, dead -1); higher = more abundant; growth selection in yeast, the domain comes from the species named
Settings: Homo sapiens

Abundance fitness: each site, then its substitutions
R43: A 0.12, V -0.966, D 0.112, I -0.888, G -0.388, T -0.825, M 0.234, L -0.181, S -0.416, N -0.085, Y -0.846, C -0.559, F -0.289, P -0.855, Q 0.11, E 0.119
N46: C -0.787, Y -0.732, A -0.15, R -0.313, G -0.311, D -0.112, M -0.492, S -0.085, H -0.545, K -0.266, P -0.89, F -0.798, T -0.579, W -0.851, L -0.493, V -0.661
E26: Q -0.527, N -0.083, D 0.205, W -0.493, F -0.849, H -0.486, V -0.461, C -0.476, A -0.332, G -0.771
V24: R -0.931, S -0.681, T -0.625, Y -0.767, N -0.581, M -0.851
T39: G -0.13, M -0.147, P -0.387, L -0.242, R -0.096, E 0.255, I -0.312, D 0.118, C -1.07, V -0.113, K 0.052, Q 0.13, S -0.065, W -0.393, Y -0.447
A29: N -0.595, K -0.202, P -0.89, M -0.402, W -0.932, L -0.829, C -0.361, S -0.119, G -0.416, V -0.87, Y -0.609, Q -0.112, I -0.492, T 0.063, H -0.079, R -0.127, F -0.509
E35: M -0.162, A -0.097, N -0.165, I -0.276, L -0.222, V -0.306, W -0.265, R -0.208, D -0.144, K -0.23, C -0.182, S -0.051, H -0.228, P -0.381, G -0.086, Q -0.059, F -0.262
F44: W -0.909, G -1.03, M -0.89, D -0.866, R -0.871, T -1.06, I -0.861, A -0.958, Y -0.842, V -0.974, N -1.11, Q -0.885, L -0.76, P -0.936, E -0.72, H -0.565
E45: A -0.415, W -0.762, F -0.878, S -0.92, L -0.883, H -1.17, C -0.763, Q -0.767, Y -0.993, M -0.893, G -0.961, T -0.821, D -0.991, V -0.809, R -0.987
H32: Y 0.276
F36: L -0.393, A -0.496, T -0.512, H -0.747, I 0.128, C -0.526, Q -0.517, P -0.702, W -0.229, G -1.05, M -0.31, K -0.744, N -0.758
V31: Y -0.339, E -0.013, S -0.004, N -0.389, L -0.058, K 0.131, H -0.574, F -0.34, R -0.053, M -0.135, D -0.462, T -0.021, W -0.392, G -0.404, I 0.027, Q -0.033, C -0.258, P -0.912
A27: G -0.739, Y -0.144, Q 0.016, V -0.662, W 0.053, K -0.483, E 0.137
